From US20240131068A1 (KITE PHARMA, published 2024) come the findings set out here.

Test [1] addresses T1, native CD19 expressed on NALM6 tumor cells (UniProt P15391 20-556).
T1 construct: whole, on cells; also called CD19^+ NALM6; NALM6-wt
T1 sequence (looked up): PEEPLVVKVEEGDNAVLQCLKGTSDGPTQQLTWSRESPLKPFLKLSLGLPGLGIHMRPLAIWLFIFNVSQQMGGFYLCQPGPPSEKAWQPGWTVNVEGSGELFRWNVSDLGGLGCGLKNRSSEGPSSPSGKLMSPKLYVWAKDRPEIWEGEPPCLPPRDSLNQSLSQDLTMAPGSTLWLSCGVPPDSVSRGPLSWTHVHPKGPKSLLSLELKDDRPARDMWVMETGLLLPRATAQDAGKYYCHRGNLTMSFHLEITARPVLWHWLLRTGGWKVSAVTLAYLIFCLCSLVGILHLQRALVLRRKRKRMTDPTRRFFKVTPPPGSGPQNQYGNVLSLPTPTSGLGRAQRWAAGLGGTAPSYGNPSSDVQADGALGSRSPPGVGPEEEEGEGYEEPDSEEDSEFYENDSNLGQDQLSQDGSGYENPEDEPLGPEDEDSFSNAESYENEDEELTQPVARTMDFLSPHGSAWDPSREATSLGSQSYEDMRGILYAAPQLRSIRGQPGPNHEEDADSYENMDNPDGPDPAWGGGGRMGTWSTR
The test can be described thus: screen of scFv clones on CD19^+ NALM6 cells, Nalm6-CD19KO cells as negative control.
Text: To ensure that the up to (30) clones could recognize native CD19 expressed on tumor cells, the clones (scFv) were also screened against NALM6 tumor cell line positive (+) CD19 expression (NALM6 cell line+CD19). CD19 knockout Nalm6 cell line (NALM6 cell line⁻ CD1; or CD19KO Nalm6 cell line) were used as a negative control for the selection. CD19KO Nalm6 cell lines used for the screen were engineered CRISPR knocked-out (KO) Nalm6-CD19KO cells. Clones that bound CD19⁺ NALM6 tumor cells, but not CD19-NALM6 tumor cells (CD19K0) were selected (Step 4).

For a further test, the target named is SIGLEC 7 (UniProt Q9Y286 19-467, limits assumed). The experiment in a line: counter-selection of scFv clones against baculovirus and SIGLEC 7, 8 and 9.
Sequence of SIGLEC 7 (Q9Y286 19-467 limits assumed): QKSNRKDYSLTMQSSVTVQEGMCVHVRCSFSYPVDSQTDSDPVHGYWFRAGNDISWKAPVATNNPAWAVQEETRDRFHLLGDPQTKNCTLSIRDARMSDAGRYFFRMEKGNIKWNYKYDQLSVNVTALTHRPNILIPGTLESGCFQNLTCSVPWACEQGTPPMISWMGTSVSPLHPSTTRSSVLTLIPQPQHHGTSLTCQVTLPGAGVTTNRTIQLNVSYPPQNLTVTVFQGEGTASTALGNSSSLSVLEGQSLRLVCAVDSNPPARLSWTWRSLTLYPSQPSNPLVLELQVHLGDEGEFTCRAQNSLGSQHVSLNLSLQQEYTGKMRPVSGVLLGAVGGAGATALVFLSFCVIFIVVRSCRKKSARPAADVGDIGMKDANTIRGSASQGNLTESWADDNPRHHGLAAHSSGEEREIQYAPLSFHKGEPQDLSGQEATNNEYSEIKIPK
A further test addresses SIGLEC 8 (UniProt Q9NYZ4 17-499, limits assumed). The test is described as above.
The target of another test is SIGLEC 9 (UniProt Q9Y336 18-463, limits assumed). Described as above.
Sequence of SIGLEC 9 (Q9Y336 18-463 limits assumed): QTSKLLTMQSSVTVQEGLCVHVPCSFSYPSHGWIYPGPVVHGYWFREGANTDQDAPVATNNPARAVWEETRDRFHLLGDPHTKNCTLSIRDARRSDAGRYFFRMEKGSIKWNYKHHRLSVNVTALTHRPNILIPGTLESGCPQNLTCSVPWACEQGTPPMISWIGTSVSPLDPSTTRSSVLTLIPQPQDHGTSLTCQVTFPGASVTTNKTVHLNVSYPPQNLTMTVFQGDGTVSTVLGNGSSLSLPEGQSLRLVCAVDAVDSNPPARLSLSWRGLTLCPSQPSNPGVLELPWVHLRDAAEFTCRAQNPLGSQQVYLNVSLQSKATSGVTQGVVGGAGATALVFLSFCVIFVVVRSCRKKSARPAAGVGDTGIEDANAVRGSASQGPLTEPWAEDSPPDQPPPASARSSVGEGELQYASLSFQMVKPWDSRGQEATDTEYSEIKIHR

Sequence of SIGLEC 8 (Q9NYZ4 17-499 limits assumed): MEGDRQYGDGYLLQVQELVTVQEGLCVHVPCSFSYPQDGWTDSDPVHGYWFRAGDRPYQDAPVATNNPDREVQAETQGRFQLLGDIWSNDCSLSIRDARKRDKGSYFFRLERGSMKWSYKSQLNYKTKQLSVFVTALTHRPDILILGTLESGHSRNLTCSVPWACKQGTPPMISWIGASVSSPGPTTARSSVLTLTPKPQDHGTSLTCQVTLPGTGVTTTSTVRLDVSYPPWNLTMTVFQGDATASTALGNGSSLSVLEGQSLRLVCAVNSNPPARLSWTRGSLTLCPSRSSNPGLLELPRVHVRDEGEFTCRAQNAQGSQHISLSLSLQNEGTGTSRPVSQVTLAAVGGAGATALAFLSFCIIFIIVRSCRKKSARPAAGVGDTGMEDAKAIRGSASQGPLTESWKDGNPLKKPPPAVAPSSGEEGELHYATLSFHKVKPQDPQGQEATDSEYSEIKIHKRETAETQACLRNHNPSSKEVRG
Text for SIGLEC 8: (§1) These up to 30 scFv clones were further screened based on their ability to bind baculovirus or SIGLEC. Clones that bound biotinylated baculovirus or SIGLEC 7, 8 and 9 were removed from consideration.
Text for SIGLEC 9: as §1

B1: CD19 14 scFv (P8) (scFv)
scFv: DIQMTQSPSSLSASVGDRVTITCRASQSISNYLNWYQQKPGKAPKLLIYAASSLQSGVPSRFSGSGSGTDFTLTISSLQPEDFATYYCQQAYSAPITFGQGTKVEIKGGGGSGGGGSGGGGSEVQLLESGGGLVQPGGSLRLSCAASGFTFGDYAMSWVRQAPGKGLEWVSAISRGGHGTYYADSVKGRFTISRDNSKNTLYLQMNSLRAEDTAVYYCARLVGYGLDYWGQGTLVTVSS
notes: scFv clone from the display library, screened as a library clone; also called 49; clone 49
B1: the binding result in test [1] was “binds”.

B2: CD19 10 scFv (P6) (scFv)
scFv: DIQMTQSPSSLSASVGDRVTITCRASQTISRYLNWYQQKPGKAPKLLIYAASSLQSGVPSRFSGSGSGTDFTLTISSLQPEDFATYYCQQSYRPPLTFGQGTKVEIKGGGGSGGGGSGGGGSEVQLLESGGGLVQPGGSLRLSCAASGFTFSSYAMSWVRQAPGKGLEWVSTISAGGHGTYYADSVKGRFTISRDNSKNTLYLQMNSLRAEDTAVYYCARGAGYFDYWGQGTLVTVSS
notes: scFv clone from the display library, screened as a library clone; also called 47; clone 47
Turning to B2, the binding result in test [1] is on record as “binds”.

B3: CD19 23 scFv (P12) (scFv)
scFv: DIQMTQSPSSLSASVGDRVTITCRASQSIYSYLNWYQQKRGKAPKLLIYDASSLQSGVPSRFSGSGSGTDFTLTISSLQPEDFATYYCQQSYTAPPTFGQGTKVEIKGGGGSGGGGSGGGGSEVQLLESGGGLVQPGGSLRLSCAASGFTFSNYAMSWVRQAPGKGLEWVSAISESGHGTYYADSVKGRFTISRDNSKNTLYLQMNSLRAEDTAVYYCARLDWAGFDVWGQGTLVTVSS
notes: scFv clone from the display library, screened as a library clone; also called 53; clone 53
Consider B3, for which the binding result in test [1] is listed as “binds”.

B4: CD19 E7 scFv (P4) (scFv)
scFv: DIQMTQSPSSLSASVGDRVTITCRASQDITRYLNWYQQKPGKAPKLLIYAASSLQSGVPSRFSGSGSGTDFTLTISSLQPEDFATYYCQQSYSYPPTFGQGTKVEIKGGGGSGGGGSGGGGSQVQLVESGGGVVQPGRSLRLSCAASGFTFRDYGMHWVRQAPGKGLEWVAVISYEGSNEYYADSVKGRFTISRDNSKNTLYLQMNSLRAEDTAVYYCARDRGFAGWYDYAFDPWGQGTLVTVSS
notes: scFv clone from the display library, screened as a library clone; also called 45; clone 45
For the molecule B4, the binding result was “binds” in test [1], “no binding” with SIGLEC 7, “no binding” in the test with SIGLEC 8 and “no binding” with SIGLEC 9.

B5: CD19 7 scFv (P5) (scFv)
scFv: DIQMTQSPSSLSASVGDRVTITCRASQSISKYLNWYQQKPGKAPKLLIYDASSLQSGVPSRFSGSGSGTDFTLTISSLQPEDFATYYCQQSYTIPLTFGQGTKVEIKGGGGSGGGGSGGGGSQVQLVQSGAEVKKPGSSVKVSCKASGGTFSSYAFSWVRQAPGQGLEWMGGIVPLFGAVEYAQKFQGRVTITADESTSTAYMELSSLRSEDTAVYYCAREKGFYRYFDHWGQGTLVTVSS
notes: scFv clone from the display library, screened as a library clone; also called 46; clone 46
Regarding B5, the binding result in test [1] is recorded as “binds”.

B6: CD19 11 scFv (P7) (scFv)
scFv: DIQMTQSPSSLSASVGDRVTITCRASQSISSYLNWYQQKPGKAPKLLIYAASSLQSGVPSRFSGSGSGTDFTLTISSLQPEDFATYYCQQTGAVPYTFGQGTKVEIKGGGGSGGGGSGGGGSEVQLLESGGGLVQPGGSLRLSCAASGFTFRDYAMSWVRQAPGKGLEWVSAISESGIDTYYADSVKGRFTISRDNSKNTLYLQMNSLRAEDTAVYYCARVAGYDSDSSTYYDYMDVWGQGTLVTVSS
notes: scFv clone from the display library, screened as a library clone; also called 48; clone 48
B6: in test [1], the binding result is “binds”.

B7: CD19 16 scFv (P10) (scFv)
scFv: QSVLTQPPSVSGAPGQRVTISCTGSSSNIGAGYDVHWYQQLPGTAPKLLIYGNNNRPSGVPDRFSGSKSGTSASLAITGLQAEDEADYYCQSYDVSLGVWVFGGGTKLTVLGGGGSGGGGSGGGGSQLQLQESGPGLVKPSETLSLTCTVSGGSISSPSYYWGWIRQPPGKGLEWIGSIYYTGATYYNPSLKSRVTISVDTSKNQFSLKLSSVTAADTAVYYCARYGPAGVGFDYWGQGTLVTVSS
notes: scFv clone from the display library, screened as a library clone; also called 51; clone 51
As to B7, the binding result in test [1] is on record as “binds”.

B8: CD19 15 scFv (P9) (scFv)
scFv: DIQMTQSPSSLSASVGDRVTITCRASQPIRPYLNWYQQKPGKAPKLLIYDASSLQSGVPSRFSGSGSGTDFTLTISSLQPEDFATYYCQQSYSAPYTFGQGTKVEIKGGGGSGGGGSGGGGSEVQLLESGGGLVQPGGSLRLSCAASGFTFSSYAMSWVRQAPGKGLEWVSVISGGGANTYYADSVKGRFTISRDNSKNTLYLQMNSLRAEDTAVYYCARDWRYFDHWGQGTLVTVSS
notes: scFv clone from the display library, screened as a library clone; also called 50; clone 50
As for B8, in test [1], the binding result is given as “binds”.

B9: CD19 18 scFv (P11) (scFv)
scFv: QSVLTQPPSVSGAPGQRVTISCTGSSSNIGAGYDVHWYQQLPGTAPKLLIYGTKNRPSGVPDRFSGSKSGTSASLAITGLQAEDEADYYCQSYDVRLKGWVFGGGTKLTVLGGGGSGGGGSGGGGSQLQLQESGPGLVKPSETLSLTCTVSGGSITSSSYYWGWIRQPPGKGLEWIGSIYYTGTTYYNPSLKSRVTISVDTSKNQFSLKLSSVTAADTAVYYCARYVGLSGGFDYWGQGTLVTVSS
notes: scFv clone from the display library, screened as a library clone; also called 52; clone 52
Take B9: the binding result in test [1] was “binds”.
